The labels stand for the following.
B1: … (peptide)
peptide: RAQLKLVAL
B2: … (peptide)
peptide: FNKRKPLSL
B3: … (peptide)
peptide: MAQFKEISL
B4: MPMQDIKM (peptide)
peptide: MPMQDIKM
B5: … (peptide)
peptide: FEYDFLLQRI
B6: … (peptide)
peptide: QENSYQSRL
B7: … (peptide)
peptide: GEVSGLTKDF
B8: … (peptide)
peptide: AETPIQNVI
B9: … (peptide)
peptide: EEIERFFKL
B10: … (peptide)
peptide: MEMQKSPVF
B11: … (peptide)
peptide: AEIQGNINHV
B12: … (peptide)
peptide: ALNPYQYQY
B13: … (peptide)
peptide: QEMQHFLGL
B14: … (peptide)
peptide: TEREWADEW
B15: … (peptide)
peptide: NEVLTYIKF
B16: … (peptide)
peptide: SEIEQEIGSL
B17: NEHPSNNW (peptide)
peptide: NEHPSNNW
B18: TEFTTVLY (peptide)
peptide: TEFTTVLY
B19: … (peptide)
peptide: SENLFFASF
B20: … (peptide)
peptide: KEADIHFLI
B21: AENLFRAF (peptide)
peptide: AENLFRAF
B22: … (peptide)
peptide: GELALKKKI
B23: … (peptide)
peptide: RELENCFQIQ
B24: … (peptide)
peptide: TENRYCVQL
B25: … (peptide)
peptide: TEGIIMKDF
B26: … (peptide)
peptide: GEIIMQNNW
B27: … (peptide)
peptide: RELQHEHSL
B28: … (peptide)
peptide: SDMVRFHLF
B29: YEDLSQKY (peptide)
peptide: YEDLSQKY
B30: … (peptide)
peptide: SEKGVIQVY
B31: … (peptide)
peptide: SEDDPILQI
B32: … (peptide)
peptide: EEATGQFHVY
B33: … (peptide)
peptide: AEIQPQTQV
B34: … (peptide)
peptide: GECDVFKEIL
B35: … (peptide)
peptide: VEAPGPVHVYW
B36: … (peptide)
peptide: AEQDMRELTY
B37: … (peptide)
peptide: SEMNVNMKY
B38: … (peptide)
peptide: GEVHPSEMI
B39: … (peptide)
peptide: SEGSEPALLHSW
B40: … (peptide)
peptide: HEFSSPSHL
B41: EDAQGHIW (peptide)
peptide: EDAQGHIW
B42: … (peptide)
peptide: EEVNYINTF
B43: … (peptide)
peptide: ASSSGPMRWW
B44: … (peptide)
peptide: SEIGKAVGF
B45: … (peptide)
peptide: TEDPTILRI
B46: … (peptide)
peptide: KEGDLGGKQW
B47: … (peptide)
peptide: DELFSIALY
B48: … (peptide)
peptide: SEPALLHSW
B49: … (peptide)
peptide: AEDQLHHSF
B50: … (peptide)
peptide: AETLSTIQI
B51: … (peptide)
peptide: GEFPVRVQV
B52: SEFMQVIF (peptide)
peptide: SEFMQVIF
B53: … (peptide)
peptide: EEIEGKGSFTYF
B54: … (peptide)
peptide: EENDQSTHKW
B55: … (peptide)
peptide: AEVPTGVII
B56: … (peptide)
peptide: KELEATKQY
B57: … (peptide)
peptide: SEIEDSTKQVF
B58: … (peptide)
peptide: AEEEIMKKI
B59: EEGRVYLF (peptide)
peptide: EEGRVYLF
B60: … (peptide)
peptide: AEVGFVRFF
B61: … (peptide)
peptide: AEDEPAAAHL
B62: … (peptide)
peptide: QEQDVDLVQKY
B63: … (peptide)
peptide: IEFIHPQAF
B64: … (peptide)
peptide: YEIEARNQVF
B65: MEVPVIKI (peptide)
peptide: MEVPVIKI
B66: … (peptide)
peptide: AELDKLTSV
B67: DEVNFLVY (peptide)
peptide: DEVNFLVY
B68: … (peptide)
peptide: TEFPIIKMY
B69: … (peptide)
peptide: TDSIHAWTF

The first experiment addresses HLA-B*08 (human). The experiment can be described thus: UV peptide exchange ELISA. (In general: ELISA stands for enzyme-linked immunosorbent assay.)
As to B1, the peptide exchange yield is more than 75%.
In the case of B2, the peptide exchange yield fell in the range of 50 to 75%.
In turn, B3 showed a peptide exchange yield of more than 75%.
On to B4, for which the peptide exchange yield is more than 75%.

The target of another experiment is HLA-B*44 (human). In words: UV peptide exchange ELISA.
For the molecule B5, the peptide exchange yield was more than 75%.
The same measure, in the same setting: under B6 stands 50 to 75%; under B7, 20 to 50%.
Still for that read-out and setting: then B8, with 50 to 75%.
With B9, the peptide exchange yield fell in the range of 50 to 75%.
Same read-out and setting: under B10 stands 50 to 75%; under B11, 50 to 75%.
On the same count and under the same terms, then B12, with 50 to 75%; and B13, with 50 to 75%.
The molecule B14 had a peptide exchange yield of 50 to 75%.
Still for that read-out and setting: under B15 stands more than 75%; under B16, 50 to 75%.
The same measure, in the same setting: under B17 stands 50 to 75%; under B18, 20 to 50%; under B19, more than 75%.
In the case of B20, the peptide exchange yield is more than 75%.
As for B21, the peptide exchange yield fell in the range of 20 to 50%.
On to B22, for which the peptide exchange yield fell in the range of 20 to 50%.
Same read-out and setting: then B23, with 50 to 75%; and B24, with more than 75%.
B25 returned a peptide exchange yield of 20 to 50%.
Still for that read-out and setting: under B26 stands more than 75%; under B27, 50 to 75%; under B28, 20 to 50%.
The same measure, in the same setting: under B29 stands 20 to 50%.
Same read-out and setting: under B30 stands 50 to 75%; under B31, 50 to 75%; under B32, 50 to 75%.
B33 returned a peptide exchange yield of 50 to 75%.
On the same count and under the same terms, then B34, with 50 to 75%; and B35, with more than 75%.
The same measure, in the same setting: then B36, with 50 to 75%; and B37, with more than 75%; and B38, with 50 to 75%.
The molecule B39 displayed a peptide exchange yield of 50 to 75%.
B40 displayed a peptide exchange yield of 50 to 75%.
The same measure, in the same setting: under B41 stands 50 to 75%; under B42, 50 to 75%; under B43, 20 to 50%.
The same measure, in the same setting: under B44 stands more than 75%.
The same measure, in the same setting: then B45, with 50 to 75%.
B46: the peptide exchange yield was in the range of 50 to 75%.
Still for that read-out and setting: under B47 stands more than 75%.
On the same count and under the same terms, then B48, with 50 to 75%; and B49, with 50 to 75%.
Take B50: the peptide exchange yield fell in the range of 50 to 75%.
Still for that read-out and setting: then B51, with 20 to 50%.
B52 displayed a peptide exchange yield of 50 to 75%.
The same measure, in the same setting: under B53 stands 50 to 75%.
Same read-out and setting: under B54 stands 50 to 75%; under B55, 50 to 75%; under B56, 20 to 50%.
B57 returned a peptide exchange yield of 50 to 75%.
The same measure, in the same setting: then B58, with 20 to 50%; and B59, with 50 to 75%.
Take B60: the peptide exchange yield was more than 75%.
B61 registered a peptide exchange yield of 20 to 50%.
Still for that read-out and setting: under B62 stands 20 to 50%; under B63, more than 75%.
Same read-out and setting: then B64, with 50 to 75%; and B65, with 20 to 50%.
B66: the peptide exchange yield is 50 to 75%.
The same measure, in the same setting: then B67, with 10 to 20%.
The same measure, in the same setting: then B68, with 20 to 50%; and B69, with 50 to 75%.

The record behind these values is patent publication US20220153796A1.
